Experiment [1] deals with T1, OV064(32-282) expressed on transfected ES-2 ovarian carcinoma cells (human, UniProt Q7Z7D3 32-282).
T1 construct: also called ES-2_OV064; ES2/OV064
T1 sequence: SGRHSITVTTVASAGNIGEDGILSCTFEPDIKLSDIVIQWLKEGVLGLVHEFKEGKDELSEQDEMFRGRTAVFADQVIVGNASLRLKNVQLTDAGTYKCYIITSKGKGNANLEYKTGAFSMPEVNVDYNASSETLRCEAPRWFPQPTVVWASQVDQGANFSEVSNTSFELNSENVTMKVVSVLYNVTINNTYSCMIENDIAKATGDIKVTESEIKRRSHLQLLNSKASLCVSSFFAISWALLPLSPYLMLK
In words: flow cytometry on OV064 expressing cells. As to the method: Analysis of mAb by flow cytometry. 50,000-100,000 test cells were prepared in 100 ul phosphate buffered saline+1% fetal bovine serum (PBSS). 50 ul of test reagent (either hybridoma supernatants, mouse serum or purified mAb) was added, and incubated 30-45 min on ice, then washed 2-3 times in PBSS. 50 ul of fluorescently labeled secondary antibody (Anti-Mouse IgG or Anti-Human IgG) was then added, and incubated 30-45 minutes on ice and washed. The cells were then resuspended in 300 ul of PBSS and analyzed by flow cytometer (FACSCalibur, Becton Dickinson) to assess amount of cell surface bound antibody.
Each human mAb (mAb sc77, mAb sc189, and mAb sc209) bound purified recombinant OV064-His fusion protein in ELISA analysis.
For orientation: Flow cytometry measures light scatter and fluorescence of single cells or particles in a stream.

In experiment [2] the target is T1, OV064(32-282) expressed on transfected …. Kind of experiment: cell-based or functional assay.
The next experiment has as its target T2, OV064 peptide 238-257 (human).
T2 construct: 20-mer synthetic peptide on nitrocellulose; also called OV064 AA 238-257
T2 peptide: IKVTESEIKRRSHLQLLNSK
In words: peptide array (20-mer on nitrocellulose). As to the method: (§1) Epitope mapping. A variety of techniques are available to determine epitopes specific for any particular antibody. For example, constructs of OV064 truncations were generated in a pCMV3 vector. Constructs representing amino acids 32-282, 133-282, 167-282 and 183-282 of the OV064 protein sequence were generated as N-terminally FLAG tagged proteins that when transfected into 293 cells, will be expressed on the cell surface. OV064 specific antibodies sc077, sc189, sc209 an 8G5 were tested for binding to these expressed constructs by flow cytometry, as described above. Furthermore, epitopes were analyzed using the Novatope system (Novagen Inc). Briefly, OV064 cDNA was treated with DNAse and fragments representing 15-600 bp were cloned into a bacterial expression vector. Each mAb was tested against 2000 clones representing OV064 fragments and each positive clone was picked and sequenced. The minimal common sequence between each of these clones was designated as the epitope to which each antibody bound. Additionally, a synthetic peptide map was utilized for identifying anti-OV064 epitopes. Briefly, 20 amino acid peptides each overlapping with 15 amino acids were printed on a nitrocellulose filter and incubated with anti-OV064 specific antibodies. Peptide spots that reacted strongly with the OV064 specific antibodies indicated the presence of an OV064 epitope.
(§2) As described above in the methods, various approaches to determine epitope mapping of OV064 specific mAbs were used. […] The other methods confirmed the results depicted in Table 5.

A further experiment addresses T3, OV064 peptide 237-256 (human).
T3 construct: 20-mer synthetic peptide on nitrocellulose; also called OV064 AA 237-256
T3 peptide: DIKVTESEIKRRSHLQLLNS
In words: peptide array (20-mer on nitrocellulose). As to the method:
as §1, §2

A further experiment addresses T4, OV064 peptide 157-176 (human).
T4 construct: 20-mer synthetic peptide on nitrocellulose; also called OV064 AA 157-176
T4 peptide: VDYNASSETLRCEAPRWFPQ
In words: peptide array (20-mer on nitrocellulose). As to the method:
as §1, §2

Another experiment addresses T5, OV064 peptide 172-191 (human).
T5 construct: 20-mer synthetic peptide on nitrocellulose; also called OV064 AA 172-191
T5 peptide: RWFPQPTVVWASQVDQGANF
Kind of experiment: peptide array (20-mer on nitrocellulose). As to the method:
as §1, §2

Another experiment deals with T6, OV064 peptide 162-181 (human).
T6 construct: 20-mer synthetic peptide on nitrocellulose; also called OV064 AA 162-181
T6 peptide: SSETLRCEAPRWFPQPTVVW
In words: peptide array (20-mer on nitrocellulose). As to the method: as §1, §2

In a further experiment the target is T7, OV064 peptide 167-186 (human).
T7 construct: 20-mer synthetic peptide on nitrocellulose; also called OV064 AA 167-186
T7 peptide: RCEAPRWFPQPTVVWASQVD
Kind of experiment: peptide array (20-mer on nitrocellulose). As to the method: as §1, §2

For another experiment, the target named is T8, OV064 peptide 177-196 (human).
T8 construct: 20-mer synthetic peptide on nitrocellulose; also called OV064 AA 177-196
T8 peptide: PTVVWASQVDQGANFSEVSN
In words: peptide array (20-mer on nitrocellulose). As to the method:
as §1, §2

B1: human monoclonal antibody mAb sc189 (antibody, human IgG1, kappa, V domains shown)
VH: EVQLVESGGGLVQPGGSLRLSCAASGFSFSSYDMHWVRQATGKGLEWVSGIDIAGDTYYPGSVKGRFTISRENAKNSLYLQMNSLRAGDTAVYYCARGDYDGTFDYWGQGTLVTVSS
VL: DIVMTQTPLSSPVTLGQPASISCRSSQSLVHSDGNTYLSWLQQRPGQPLRLLFYKISNRFSGVPDRFSGSGAGTDFTLIINRVEAEDVGVYYCMHATQFPITFGQGTRLEIKR
notes: Human IgG1 kappa; also called Ov64sc189
B1: the “FCM (MFI max)” value in experiment [1] amounted to 820 MFI. In [2], the “ICA (EC50)” value turned out to be 0.06 nM. The binding result with OV064 peptide 238-257 and with OV064 peptide 237-256 was “binds” in each case.

B2: human monoclonal antibody mAb sc77 (antibody, human IgG1, kappa, V domains shown)
VH: QVQLVESGGGVVQPGRSLRLSCAASGFTFSSYGMHWVRQAPGKGLEWVAVIWYDGNNKYYADSVKGRFTISRDNSKNTLYLQMNSLRAEDTAVYYCARTSGIAAFDYWGQGTLVTVSS
VL: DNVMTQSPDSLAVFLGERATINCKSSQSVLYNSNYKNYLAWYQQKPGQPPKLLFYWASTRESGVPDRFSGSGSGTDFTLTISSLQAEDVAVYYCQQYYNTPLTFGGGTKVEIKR
notes: Human IgG1 kappa; also called sc077; Ov64sc77
For the molecule B2, in experiment [1], the “FCM (MFI max)” value worked out at 780 MFI. Moreover, the “ICA (EC50)” value in [2] was 0.123 nM. Also, the binding result in the experiment with OV064 peptide 157-176, with OV064 peptide 172-191, with OV064 peptide 162-181 and in the experiment with OV064 peptide 167-186 was “binds” each time.

B3: human monoclonal antibody mAb sc209 (antibody, human IgG1, kappa, V domains shown)
VH: GVQLVESGGGLVQPGGSLRLSCAASGFTISRNDMHWVRQATGKGLEWVSAIGTGGDTYYPGSVKGRFTISRENAKNSLYLQMNSLRAGDTAVYYCARGHMTTFGGFIVIGNGMDVWGQGTTVTVSS
VL: not shown
notes: Human IgG1 kappa; also called Ov64sc209
B3: in experiment [1], the “FCM (MFI max)” value was 700 MFI. In addition, in [2], the “ICA (EC50)” value was 0.053 nM. In addition, the binding result in the experiment with OV064 peptide 157-176, with OV064 peptide 172-191, with OV064 peptide 177-196, with OV064 peptide 162-181 and in the experiment with OV064 peptide 167-186 was “binds” in each case.

These data come from US20090208489A1 (Takeda / Millennium, published 2009).
